According to patent publication US11078465B2, “Alcohol dehydrogenase mutant and application thereof in synthesis of diaryl chiral alcohols” (Jiangnan University, priority 2018, dated 2021):
Numbering of substitutions follows the chain as printed. Numbers in names are those of the source. Entries after “also recorded” stand apart in the source; their conditions may differ.

Assays:
Assay type in all cases: biochemical
[1] = Stereoselectivity on different substrates; details: for Stereoselectivity (ee): configuration in brackets
Method: (§1) In an embodiment of the present disclosure, a chromatographic analysis method is as follows: 100 μL of reactant liquid is taken, 500 μL of ethyl acetate is added, shaking is performed for 1-2 min, centrifugation is performed at 12,000 rpm for 2-5 min, supernatant liquid is taken into a centrifuge tube, after an organic phase naturally volatilizes completely, 500 μL of chromatographically pure ethanol is added, and chiral liquid chromatography and gas chromatography are performed to analyze the transformation rate and the ee value.
(§2) Method for determining optical purity ee:
(§3) As: molar concentration of (S)-CPMA obtained by liquid chromatography; and AR: molar concentration of (R)-CPMA obtained by liquid chromatography.
(§4) The reduction on prochiral carbonyl compounds by the alcohol dehydrogenase mutants obtained in Example 3 was studied. The pro-chiral carbonyl compounds include (4-chlorophenyl)-(pyridin-2-yl)-methanone (CPMK), phenyl-(pyridin-2-yl)-methanone, (4-chlorophenyl)-(phenyl)-methanone, (4-bromophenyl)(phenyl)methanone, (4-fluorophenyl)(phenyl)methanone, (4-methoxyphenyl)-(phenyl)-methanone, (4-nitrophenyl)(phenyl)methanone, 1-(pyridin-2-yl)ethanone, acetophenone, 4′-Chloroacetophenone, 4-chlorophenacyl chloride, ethyl 2-oxo-4-phenylbutanoate (OPBE), ethyl 4-chloro-3-oxobutanoate, and methyl 2-oxo-2-phenylacetate.
All the products above were recrystallized from ethyl acetate and gave more than 99.9% optical purity.

[2] = Stereoselectivity (ee) of CPMK reduction, chiral liquid chromatography; details: for e.e.: product configuration in brackets
Summary of the method: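 ee is calculated from the (S)-CPMA and (R)-CPMA molar concentrations measured by chiral liquid chromatography; conversion also by GC. Samples are ethyl acetate extracts of the reaction, dried and redissolved in ethanol.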

[3] = Kinetic analysis of alcohol dehydrogenase and mutants (NADPH oxidation, 340 nm, double reciprocal curve); details: substrate CPMK
Summary of the method: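 His-tagged recombinant KpADH (wild type or mutant) purified by nickel affinity, desalted into Tris-HCl pH 7.0. Activity measured at 30° C in 100 mM sodium phosphate pH 7.0 with 1.0 mM NADPH and 1.0 mM CPMK by 340 nm NADPH absorbance decrease; kinetic parameters from double reciprocal plots over varied substrate and coenzyme concentrations.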

[4] = Stereoselectivity on different substrates; details: configuration in brackets
Method: as §1, §2, §3, §4

[5] = Asymmetric reduction in 20 mL biocatalytic system, conversion
Method: as §1
The pure (R)-CPMA were recrystallized from ethyl acetate at 4° C. and gave 99.9% optical purity. […] Besides, the conversion cannot reach 100% with 24 h in the asymmetric reduction of (4-bromophenyl)-(phenyl)-methanone and p-nitrobenzophenone due to the low enzyme activity.

[6] = Substrate specificity, specific activity
Method: Adopting a total reaction system of 200 μL, including: 1.0 mM NADPH, 1.0 mM substrate CPMK and sodium phosphate buffer (PBS, 100 mM, pH 7.0), fully and evenly mixing, maintaining at 30° C. for 2 min, adding an appropriate amount of enzyme solution, and detecting the change in light absorption at 340 nm.
The enzyme activity was calculated by the following formula: Enzyme activity (U)=EW×V×10^3/(6220×I);
in the formula, EW is the change in absorbance at 340 nm in 1 min; V is the volume of a reaction solution in mL; 6220 is the molar extinction coefficient of NADPH in L/mol·cm); and 1 is the optical path distance in cm. One activity unit (U) corresponds to the amount of enzyme required to catalyze the oxidation of 1 μmol NADPH per minute under the above conditions.
as §4

[7] = substrate [drawing 10], acetophenone
[8] = substrate [drawing 11], 4-chloroacetophenone
[9] = substrate [drawing 12], 4-chlorobenzoyl chloride
[10] = substrate [drawing 16], (4-bromophenyl)-(phenyl)-methanone
[11] = substrate [drawing 17], p-nitrobenzophenone
[12] = substrate [drawing 14], likely CPMK (values partly match Table 4)
[13] = substrate [drawing 6], 4-chlorophenacyl chloride
[14] = substrate [drawing 9], ethyl 4-chloro-3-oxobutanoate

B1: E214S/S237C: serine for glutamate at position 214 and cysteine for serine at position 237 of SEQ ID No. 2 (protein)
chain: MSVLISGASGYIAKHIVRVLLEQNYKVIGTVRSQDKADKLLKQYNNPNLSYEIVPEIANLDAFDDIFKKHGKEIKYVIHAASPVNFGAKDLEKDLVIPAINGTKNMFEAIKKYAPDTVERVVMTASYASIMTPHRQNDPTLTLDEETWNPVTEENAYENVFTAYCASKTFAEKEAWKFVKENSDAVKFKLTTIHPSFVFGPQNFDEDVTKKLNSTCEIINGLLHAPFDTKVEKTHFCQFIDVRDVAKTHVLGFQKDELINQRLLLCNGAFSQQDIVNVFNEDFPELKGQFPPEDKDTDLNKGVTGCKIDNEKTKKLLAFEFTPFHKTIHDTVYQILHKEGRV
modifications: Protein translated from synthetic DNA
- ee value ([1]; substrate 4-chlorobenzoyl chloride): 99.6%
- Stereoselectivity (ee) [1, 7]: 98.9 (R)
- Stereoselectivity (ee) [1, 8]: 95.6 (R)
- Stereoselectivity (ee) [1, 9]: 99.6 (R)
- Stereoselectivity (ee) [1, 10]: 90.6 (R)
- Stereoselectivity (ee) [1, 11]: 91.9 (R)
- configuration of product / stereoselectivity in words [2]: inversion from the R configuration to the S configuration; also recorded: (S)-CPMA
- e.e. [2]: 52.0 (S)
- Kcat [3]: 8.33 ± 0.17 s⁻¹
- Km [3]: 400 ± 20 µM
- Vmax [3]: 12.5 ± 0.16 µM/min/mg
- Stereoselectivity (ee) ([4]; substrate [drawing 13]): 52.6 (R)
- Stereoselectivity (ee) [4, 12]: 52.0 (S)
- Stereoselectivity (ee) ([4]; substrate [drawing 15]): 88.1 (R)
- Stereoselectivity (ee) ([4]; substrate [drawing 18]): 92.3 (R)
- Conversion rate ([5]; 4-chlorobenzoyl chloride 100 mM, 1 h): 66%
- Conversion rate ([5]; 4-chlorobenzoyl chloride 100 mM, 2 h): 79%
- Conversion rate ([5]; 4-chlorobenzoyl chloride 100 mM, 3 h): 90%
- Conversion rate ([5]; 4-chlorobenzoyl chloride 100 mM, 4 h): 98%
- Conversion rate ([5]; 4-chlorobenzoyl chloride 100 mM, 6 h): 99.2%
- Conversion rate ([5]; 4-chlorobenzoyl chloride 100 mM, 8 h): 99.8%
- Conversion rate ([5]; 4-chlorobenzoyl chloride 100 mM, 12 h): >99.9%
- Conversion rate ([5]; 4-chlorobenzoyl chloride 100 mM, 24 h): >99.9%
- Conversion rate ([5]; 4-chlorobenzoyl chloride 200 mM, 1 h): 55%
- Conversion rate ([5]; 4-chlorobenzoyl chloride 200 mM, 2 h): 69%
- Conversion rate ([5]; 4-chlorobenzoyl chloride 200 mM, 3 h): 76%
- Conversion rate ([5]; 4-chlorobenzoyl chloride 200 mM, 4 h): 85.9%
- Conversion rate ([5]; 4-chlorobenzoyl chloride 200 mM, 6 h): 96.4%
- Conversion rate ([5]; 4-chlorobenzoyl chloride 200 mM, 8 h): 99.1%
- Conversion rate ([5]; 4-chlorobenzoyl chloride 200 mM, 12 h): 99.8%
- Conversion rate ([5]; 4-chlorobenzoyl chloride 200 mM, 24 h): >99.9%
- Conversion rate ([5]; 4-chlorobenzoyl chloride 500 mM, 1 h): 35.6%
- Conversion rate ([5]; 4-chlorobenzoyl chloride 500 mM, 2 h): 49.6%
- Conversion rate ([5]; 4-chlorobenzoyl chloride 500 mM, 3 h): 66.4%
- Conversion rate ([5]; 4-chlorobenzoyl chloride 500 mM, 4 h): 79.3%
- Conversion rate ([5]; 4-chlorobenzoyl chloride 500 mM, 6 h): 89.0%
- Conversion rate ([5]; 4-chlorobenzoyl chloride 500 mM, 8 h): 95.6%
- Conversion rate ([5]; 4-chlorobenzoyl chloride 500 mM, 12 h): 96.9%
- Conversion rate ([5]; 4-chlorobenzoyl chloride 500 mM, 24 h): 98.9%
- specific activity ([6]; substrate [drawing 1]): 0.19 U/mg
- specific activity ([6]; substrate [drawing 2]): 0.09 U/mg
- specific activity ([6]; substrate [drawing 3]): 0.25 U/mg
- specific activity ([6]; substrate [drawing 4]): 5.69 U/mg
- specific activity ([6]; substrate [drawing 5]): 2.55 U/mg
- specific activity [6, 13]: 5.96 U/mg
- specific activity ([6]; substrate [drawing 7]): 15.58 U/mg
- specific activity ([6]; substrate [drawing 8]): 30.69 U/mg
- specific activity [6, 14]: 1.59 U/mg

B2: E214V/S237A: valine for glutamate at position 214 and alanine for serine at position 237 of SEQ ID No. 2 (protein)
chain: B1 chain with S214V, C237A
modifications: Protein translated from synthetic DNA
- Stereoselectivity (ee) [1, 7]: 17.1 (R)
- Stereoselectivity (ee) [1, 8]: 97.8 (R)
- Stereoselectivity (ee) [1, 9]: 75.2 (R)
- Stereoselectivity (ee) [1, 10]: 88.1 (S)
- Stereoselectivity (ee) [1, 11]: 85.3 (S)
- e.e. [2]: 98.5 (R)
- Kcat [3]: 8.46 ± 0.27 s⁻¹
- Km [3]: 320 ± 30 µM
- Vmax [3]: 12.69 ± 0.40 µM/min/mg
- Stereoselectivity (ee) ([4]; substrate [drawing 13]): 36.6 (R)
- Stereoselectivity (ee) [4, 12]: 98.7 (R)
- Stereoselectivity (ee) ([4]; substrate [drawing 15]): 54.2 (S)
- Stereoselectivity (ee) ([4]; substrate [drawing 18]): 81.8 (S)
- specific activity ([6]; substrate [drawing 1]): 0.16 U/mg
- specific activity ([6]; substrate [drawing 2]): 0.12 U/mg
- specific activity ([6]; substrate [drawing 3]): 2.37 U/mg
- specific activity ([6]; substrate [drawing 4]): 2.86 U/mg
- specific activity ([6]; substrate [drawing 5]): 9.21 U/mg
- specific activity [6, 13]: 27.07 U/mg
- specific activity ([6]; substrate [drawing 7]): 24.47 U/mg
- specific activity ([6]; substrate [drawing 8]): 27.64 U/mg
- specific activity [6, 14]: 8.03 U/mg
